Results reported in publication PMC4842275.

Target: HIV-1 capsid of the wild type HIV-1GFP vector (HIV-1)

**Q.** For “engineered human TRIM5alpha fused with CypA at position S322 (T5Cyp) (from UniProt Q9C035 1-322)”, which restriction of HIV-1GFP infection (GFP+ cells by FACS 48 h after infection) in Jurkat T5Cyp cells compared to H126Q cells is on record?
**A.** 10 fold
